Literature values as cited in publication PMC12384152.

Target: β-spectrin repeats 14-15 (Homo sapiens) (UniProt P11277)
UniProt P11277, sequence (P11277 1691-1907): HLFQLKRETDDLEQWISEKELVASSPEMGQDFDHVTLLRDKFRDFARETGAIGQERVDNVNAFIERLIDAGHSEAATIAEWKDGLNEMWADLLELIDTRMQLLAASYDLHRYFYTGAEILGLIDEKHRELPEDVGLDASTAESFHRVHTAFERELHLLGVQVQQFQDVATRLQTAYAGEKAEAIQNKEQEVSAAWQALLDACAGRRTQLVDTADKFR

- Kd: 0.015 µM
Substance: ankyrin-1 ZU5 (from UniProt P16157)
